The labels stand for the following.
B1: Dectin-1.Fc (CLEC7A) protein (Fc fusion)
chain: TMAIWRSNSGSNTLENGYFLSRNKENHSQPTQSSLEDSVTPTKAVKTTGVLSSPCPPNWIIYEKSCYLFSMSLNSWDGSKRQCWQLGSNLLKIDSSNELGFIVKQVSSQPDNSFWIGLSRPQTEVPWLWEDGSTFSSNLFQIRTTATQENPSPNCVWIHVSVIYDQLCSVPSYSICEKKFSM
B2: Dectin-2.Fc (CLEC6A) protein (Fc fusion)
chain: TYHFTYGETGKRLSELHSYHSSLTCFSEGTKVPAWGCCPASWKSFGSSCYFISSEEKVWSKSEQNCVEMGAHLVVFNTEAEQNFIVQQLNESFSYFLGLSDPQGNNNWQWIDKTPYEKNVRFWHLGEPNHSAEQCASIVFWKPTGWGWNDVICETRRNSICEMNKIYL
B3: CLEC5A.Fc protein (Fc fusion)
chain: PQIFNKSNDGFTTTRSYGTVSQIFGSSSPSPNGFITTRSYGTVCPKDWEFYQARCFFLSTSESSWNESRDFCKGKGSTLAIVNTPEKLKFLQDITDAEKYFIGLIYHREEKRWRWINNSVFNGNVTNQNQNFNCATIGLTKTFDAASCDISYRRICEKNAK
B4: Mincle.Fc (CLEC4F) protein (Fc fusion)
chain: RCVVTFRIFQTCDEKKFQLPENFTELSCYNYGSGSVKNCCPLNWEYFQSSCYFFSTDTISWALSLKNCSAMGAHLVVINSQEEQEFLSYKKPKMREFFIGLSDQVVEGQWQWVDGTPLTKSLSFWDVGEPNNIATLEDCATMRDSSNPRQNWNDVTCFLNYFRICEMVGINPLNKGKSL

The target in this test is recombinant SARS-CoV-2 RBD (His-tagged SARS-CoV-2 RBD fusion protein) (SARS-CoV-2, UniProt P0DTC2 328-585). Kind of test: ELISA. (In general: An ELISA detects its analyte on a solid surface through an enzyme-linked reagent.)
For the molecule B1, the binding result is reported as “no binding (tested: 50 µg/ml)”.

B2: the binding result is “no binding (tested: 50 µg/ml)”.

For B3, the binding result was “no binding (tested: 50 µg/ml)”.

Regarding B4, the binding result is on record as “no binding (tested: 50 µg/ml)”.
